Test [1] addresses HLA-A*02:02. Put plainly: IEDB peptide-MHC binding, cellular MHC/competitive/fluorescence; ≥ and ≤ were set here for values at or beyond the usual limits of such assays.
Test [2] has as its target HLA-A*68:02. Described as above. The following applies: source organism: Vaccinia virus WR.
Test [3] concerns the target HLA-A*02:03. Described as above.
The target in test [4] is HLA-A*02:06. The test is described as above.
Test [5] has as its target HLA-A*02:01. Put plainly: IEDB peptide-MHC binding, purified MHC/competitive/radioactivity; ≥ and ≤ were set here for values at or beyond the usual limits of such assays. As to conditions: source organism: Vaccinia virus WR.
Test [6] concerns the target HLA-A*02:01. Put plainly: IEDB peptide-MHC binding, cellular MHC/competitive/fluorescence; ≥ and ≤ were set here for values at or beyond the usual limits of such assays.
Test [7] deals with HLA-A*68:02. Put plainly: IEDB peptide-MHC binding, purified MHC/competitive/radioactivity; ≥ and ≤ were set here for values at or beyond the usual limits of such assays.
[8] abbreviates: source organism: Vaccinia virus WR.
The mark [9] stands for this setting: source organism: Influenza A virus.
The mark [10] stands for this setting: source organism: Mammarenavirus choriomeningitidis.
Setting [11] is: source organism: Mammarenavirus guanaritoense.

For orientation: IC50 means the concentration that gives 50% inhibition.

On to PLTLLIKTL, for which the IC50 in test [1] (setting [8]) amounted to 5.27 µM; in test [2], 6.22 µM; in test [3] (setting [8]) it was 6.15 µM; in test [4] (setting [8]), 8.1 µM; in test [5], 4.78 µM.
On to LTSNCTRTT, for which the IC50 in test [1] (setting [8]) was no less than 70 µM; in test [6] (setting [8]), no less than 70 µM; in test [3] (setting [8]), 29.6 µM; in test [4] (setting [8]) it was 40.7 µM; in test [7] (setting [8]), 2.02 µM.
With GLESIEQNLT, the IC50 in test [1] (setting [8]) is 7.02 µM; in test [6] (setting [8]), 34.4 µM; in test [3] (setting [8]), 61.3 µM; in test [4] (setting [8]), no less than 70 µM; in test [7] (setting [8]) it was 1.44 µM.
On the same counts, the results for TVDFTDCRTI are 31.8 µM, 29.5 µM, 10.4 µM, 10.6 µM and 0.348 µM.
For ELPVKTDIV, in that order: 23 µM, 11.1 µM, 8.06 µM, 11.5 µM and 3.59 µM.
Turning to ETIQKDINI, the IC50 in test [1] (setting [8]) was 36.6 µM; in test [6] (setting [8]) it was no less than 70 µM; in test [3] (setting [8]), 50.8 µM; in test [4] (setting [8]), 34.9 µM; in test [7] (setting [8]), 0.046 µM.
With VVIVENDNVI, the IC50 in test [1] (setting [8]) stood at 14.7 µM; in test [2], 22.5 µM; in test [3] (setting [8]), 10.2 µM; in test [4] (setting [8]), 10.8 µM; in test [5] it was 2.83 µM.
As for ETNIGCAVNT, the IC50 in test [1] (setting [8]) was no less than 70 µM; in test [6] (setting [8]) it was 58.4 µM; in test [3] (setting [8]) it was 37 µM; in test [4] (setting [8]), no less than 70 µM; in test [7] (setting [8]), 0.022 µM.
As for RASTTENAA, the IC50 in test [1] (setting [8]) was 26.7 µM; in test [6] (setting [8]) it was no less than 70 µM; in test [3] (setting [8]), 66.7 µM; in test [4] (setting [8]) it was 12.1 µM; in test [7] (setting [8]) it was 0.314 µM.
For CVDIFTEGKI, in that order: no less than 70 µM, 43.2 µM, 17.5 µM, 20.9 µM and 1.31 µM.
For DAIKSNNHLT, in that order: 27.4 µM, no less than 70 µM, 17.9 µM, no less than 70 µM and 0.768 µM.
For EIVKNIREGT, in that order: 28.5 µM, 11.8 µM, 8.53 µM, 60.7 µM and 0.431 µM.
For the sequence DMLLNVQTL, the IC50 in test [1] (setting [8]) was found to be 7.4 µM; in test [2], 5.05 µM; in test [3] (setting [8]), 5.07 µM; in test [4] (setting [8]), 13.4 µM; in test [5] it was 3.15 µM.
As for WILWISFAIS, the 50% inhibitory concentration (IC50) in test [1] (setting [9]) came to 18.7 µM; in test [6] (setting [9]), 21.2 µM; in test [3] (setting [9]), 9.09 µM; in test [4] (setting [9]), 27.2 µM; in test [7] (setting [9]) it was 2.51 µM.
Regarding QTLISLNSM, the IC50 stood at 19.4 µM in test [1] (setting [8]); 19.4 µM in test [2]; 39.3 µM in test [3] (setting [8]); 7.5 µM in test [4] (setting [8]); 4.82 µM in test [5].
DVIKSISSI: the half-maximal inhibitory concentration (IC50) is 63.8 µM in test [1] (setting [8]); 32 µM in test [6] (setting [8]); 7.52 µM in test [3] (setting [8]); 15 µM in test [4] (setting [8]); 0.504 µM in test [7] (setting [8]).
Turning to DTDIVNNFI, the IC50 was 9.32 µM in test [1] (setting [8]); 26.2 µM in test [6] (setting [8]); 19.4 µM in test [3] (setting [8]); 15.7 µM in test [4] (setting [8]); 0.628 µM in test [7] (setting [8]).
For EALYYVHSL, in that order: 14.2 µM, 17.6 µM, 5.77 µM, 14.8 µM and 0.347 µM.
For ETKRNIARHL, in that order: 50 µM, no less than 70 µM, 12.4 µM, no less than 70 µM and 0.721 µM.
Consider DVSVSVGTGI, for which the concentration for half-maximal inhibition (IC50) is 17.9 µM in test [1] (setting [8]); no less than 70 µM in test [6] (setting [8]); 5.83 µM in test [3] (setting [8]); 22.2 µM in test [4] (setting [8]); 0.424 µM in test [7] (setting [8]).
On the same counts, the results for NITHTNITTL are 10.4 µM, 10.1 µM, 5.02 µM, 8.17 µM and 4.91 µM.
For TVKNVDIIDL, in that order: 31.3 µM, 63.3 µM, 8.31 µM, 12.4 µM and 0.834 µM.
For TAFFNTCKPT, in that order: 31.6 µM, 37.9 µM, 22.3 µM, 33 µM and 0.535 µM.
Regarding IAIFNNRNL, the IC50 in test [1] (setting [8]) worked out at 9.23 µM; in test [6] (setting [8]), 38.5 µM; in test [3] (setting [8]) it was 10.5 µM; in test [4] (setting [8]) it was 13.5 µM; in test [7] (setting [8]), 0.262 µM.
For EVIGLTTHCT, in that order: 10.5 µM, 24.8 µM, 14.9 µM, 12.2 µM and 0.017 µM.
For ETFPNVHEHI, in that order: 8.02 µM, 23.9 µM, 6.62 µM, no less than 70 µM and 0.00045 µM.
For NVQSLIKFI, in that order: 12.9 µM, 17.1 µM, 6.02 µM, 10.5 µM and 0.703 µM.
Take MAFILGIII: the IC50 in test [1] (setting [8]) was determined as 9.54 µM; in test [6] (setting [8]), 5.87 µM; in test [3] (setting [8]), 9.76 µM; in test [4] (setting [8]) it was 32.5 µM; in test [7] (setting [8]), 4.93 µM.
Regarding HTKFWISDNT, the IC50 in test [1] (setting [8]) was 21.5 µM; in test [6] (setting [8]), no less than 70 µM; in test [3] (setting [8]), 60.2 µM; in test [4] (setting [8]), no less than 70 µM; in test [7] (setting [8]), 0.623 µM.
HNASDFYGL: the IC50 is 6.51 µM in test [1] (setting [10]); 15.5 µM in test [6] (setting [10]); no less than 70 µM in test [3] (setting [10]); 21.8 µM in test [4] (setting [10]); 0.147 µM in test [7] (setting [10]).
Turning to NTGMGMYYPT, the IC50 in test [1] (setting [8]) was found to be 23.4 µM; in test [6] (setting [8]) it was 28.8 µM; in test [3] (setting [8]), 21 µM; in test [4] (setting [8]), 11.3 µM; in test [7] (setting [8]) it was 2.15 µM.
Consider NVTVTHSV, for which the IC50 stood at 60.5 µM in test [1] (setting [9]); 22.6 µM in test [6] (setting [9]); 14.6 µM in test [3] (setting [9]); 18.6 µM in test [4] (setting [9]); 1.27 µM in test [7] (setting [9]).
With LIYYQNEVT, the IC50 in test [1] (setting [8]) was 14 µM; in test [6] (setting [8]) it was 27.9 µM; in test [3] (setting [8]), 5.21 µM; in test [4] (setting [8]), 8.51 µM; in test [7] (setting [8]) it was 1.08 µM.
For NACDKHNKT, the IC50 in test [1] (setting [8]) came out at 17.9 µM; in test [6] (setting [8]), 22.5 µM; in test [3] (setting [8]) it was 9.25 µM; in test [4] (setting [8]), 18.6 µM; in test [7] (setting [8]), 0.925 µM.
On the same counts, the results for TINALVYFST are 14.1 µM, 5.16 µM, 7.34 µM, 62.7 µM and 0.391 µM.
On to ATCALVSDCA, for which the IC50 in test [1] (setting [8]) turned out to be 34.7 µM; in test [6] (setting [8]), 55.8 µM; in test [3] (setting [8]), 23.4 µM; in test [4] (setting [8]) it was 9.14 µM; in test [7] (setting [8]), 0.018 µM.
On the same counts, the results for SARALKAYFT are 21.6 µM, 58.4 µM, 7.81 µM, 25.7 µM and 4.15 µM.
Turning to YCLDFLFDV, the IC50 in test [1] (setting [11]) is 17.3 µM; in test [6] (setting [11]) it was 40.7 µM; in test [3] (setting [11]) it was no less than 70 µM; in test [4] (setting [11]) it was no less than 70 µM; in test [7] (setting [11]) it was 0.024 µM.
Regarding FTELENKKV, the IC50 in test [1] (setting [8]) is 19.6 µM; in test [6] (setting [8]) it was no less than 70 µM; in test [3] (setting [8]), 8.08 µM; in test [4] (setting [8]), 6.84 µM; in test [7] (setting [8]) it was 3.98 µM.
Turning to NTLIQYRQQL, the IC50 in test [1] (setting [8]) was 6.37 µM; in test [6] (setting [8]), no less than 70 µM; in test [3] (setting [8]), 10.1 µM; in test [4] (setting [8]), 20.9 µM; in test [7] (setting [8]) it was 0.876 µM.
On to AVYFKAKWLT, for which the IC50 is 27.2 µM in test [1] (setting [8]); 8.89 µM in test [6] (setting [8]); 8.93 µM in test [3] (setting [8]); 8.71 µM in test [4] (setting [8]); 0.605 µM in test [7] (setting [8]).
On to VAEHRFENM, for which the IC50 in test [1] (setting [8]) was 7.13 µM; in test [6] (setting [8]), no less than 70 µM; in test [3] (setting [8]), 7.16 µM; in test [4] (setting [8]), 48.1 µM; in test [7] (setting [8]) it was 4.42 µM.
For SVDFVVNGHT, the half-inhibitory concentration (IC50) in test [1] (setting [8]) is no less than 70 µM; in test [6] (setting [8]), no less than 70 µM; in test [3] (setting [8]) it was no less than 70 µM; in test [4] (setting [8]), no less than 70 µM; in test [7] (setting [8]), 1.34 µM.
On to TAEQLSKYV, for which the half-maximal inhibitory concentration (IC50) in test [1] (setting [8]) was determined as 5.22 µM; in test [6] (setting [8]) it was 53.2 µM; in test [3] (setting [8]), 8.9 µM; in test [4] (setting [8]) it was 23.9 µM; in test [7] (setting [8]), 2.17 µM.
On the same counts, the results for ETVKMGAFM are 15 µM, no less than 70 µM, 7.43 µM, 40.2 µM and 0.081 µM.
As to DVEKRILNTI, the 50% inhibitory concentration (IC50) in test [1] (setting [8]) was 21 µM; in test [6] (setting [8]) it was 55.1 µM; in test [3] (setting [8]) it was 12.6 µM; in test [4] (setting [8]), 10.8 µM; in test [7] (setting [8]), 4.4 µM.

(Values after the Immune Epitope Database (IEDB).)
